{"source": "patent US20190055316A1", "binders": {"B1": {"name": "Ab237 (antibody, V domains shown)", "VH": "QVQLQESGPGLVKPSQTLSLTCTVSGGSINNNNYYWTWIRQHPGKGLEWIGYIYYSGSTFYNPSLKSRVTISVDTSKTQFSLKLSSVTAADTAVYYCAREDTMTGLDVWGQGTTVTVSS", "VL": "DIQMTQSPSSLSASVGDRVTITCRASQSINNYLNWYQQKPGKAPTLLIYAASSLQSGVPSRFSGSRSGTDFTLTISSLQPEDFAAYFCQQTYSNPTFGQGTKVEVK"}}, "key": {"[1]": {"target": "native human MSLN expressed on the cell surface (N87 tumor cells) (human) (UniProt Q13421)", "sequence (Q13421 296-606 limits assumed)": "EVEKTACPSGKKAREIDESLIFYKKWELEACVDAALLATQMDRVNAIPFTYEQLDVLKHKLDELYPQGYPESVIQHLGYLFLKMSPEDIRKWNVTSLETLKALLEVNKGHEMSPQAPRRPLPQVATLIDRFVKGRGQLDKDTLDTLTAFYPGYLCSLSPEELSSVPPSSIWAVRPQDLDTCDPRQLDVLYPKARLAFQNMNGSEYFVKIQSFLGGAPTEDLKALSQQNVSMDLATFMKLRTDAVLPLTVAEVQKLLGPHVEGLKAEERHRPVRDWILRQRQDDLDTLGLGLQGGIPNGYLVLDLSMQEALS", "experiment": "KinExA on N87 cells compared with Biacore on soluble MSLN"}, "[2]": {"target": "recombinant human soluble MSLN (human) (UniProt Q13421)", "sequence (Q13421 296-606 limits assumed)": "as above", "experiment": "Biacore (SPR), antibody captured on chip, rHuMSLN sol. in flow"}, "[3]": {"target": "native human MSLN expressed on the cell surface (N87 tumor cells) (human) (UniProt Q13421)", "experiment": "KinExA equilibrium binding to N87 tumor cells expressing native human MSLN"}}}
{"binder": "B1", "values": [{"measurement": "fold higher selectivity for native surface bound MSLN compared to soluble MSLN", "setting": "[1]", "value": 30, "unit": "fold"}, {"measurement": "Kd", "setting": "[2]", "value": 0.097, "unit": "nM"}, {"measurement": "Kd", "setting": "[3]", "value": 3.5, "unit": "pM"}]}
